Test results published in PMC7376022, “ARHGAP10, which encodes Rho GTPase-activating protein 10, is a novel gene for schizophrenia risk” (Translational Psychiatry, 2020).

Biological target: T1, GST-RhoA (p.Q63L) (UniProt P61586 1-193, p.Q63L)
T1 construct: RhoA, small GTPase, constitutively active mutant Q63L; also called GST-RhoA (Q63L); constitutively active RhoA; source: expressed in HEK293 cells
Assay: pull-down; GST binding assay; GST-RhoA proteins as bait, GFP-tagged ARHGAP10 as prey; input and bound proteins on immunoblots, densitometry with Odyssey Clx; three independent experiments

T1 sequence (P61586 whole entry Q63L): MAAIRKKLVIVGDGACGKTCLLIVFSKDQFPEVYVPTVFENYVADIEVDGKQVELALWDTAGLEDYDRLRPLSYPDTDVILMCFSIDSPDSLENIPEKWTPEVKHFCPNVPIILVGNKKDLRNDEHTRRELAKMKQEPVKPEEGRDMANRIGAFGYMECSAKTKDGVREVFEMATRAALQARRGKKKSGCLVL

B1: GFP-tagged human ARHGAP10 (p.S490P) mutant (natural protein, UniProt A1A4S6 1-786, looked up)
chain: MGLQPLEFSDCYLDSPWFRERIRAHEAELERTNKFIKELIKDGKNLIAATKSLSVAQRKFAHSLRDFKFEFIGDAVTDDERCIDASLREFSNFLKNLEEQREIMALSVTETLIKPLEKFRKEQLGAVKEEKKKFDKETEKNYSLIDKHLNLSAKKKDSHLQEADIQVEQNRQHFYELSLEYVCKLQEIQERKKFEFVEPMLSFFQGMFTFYHQGHELAKDFNHYKMELQINIQNTRNRFEGTRSEVEELMNKIRQNPKDHKRASQFTAEGYLYVQEKRPAPFGSSWVKHYCMYRKAAKKFNMIPFEHRSGGKLGDGEVFFLKECTKRHTDSIDRRFCFDIEAADRPGVSLTMQAFSEEERKQWLEALGGKEALSHSFNTAIIPRPEGNAQLDKMGFTIIRKCISAVETRGINDQGLYRVVGVSSKVQRLLSMLMDVKTCNEVDLENSADWEVKTITSALKQYLRSLPEPLMTYELHGDFIVPAKSGSPEPRVNAIHFLVHKLPEKNKEMLDILVKHLTNVSNHSKQNLMTVANLGVVFGPTLMRPQEETVAALMDLKFQNIVVEILIENHEKIFRTPPDTTFPEPTCLSASPPNAPPRQSKRQGQRTKRPVAVYNLCLELEDGDNPYPSKEDTPTSSLDSLSSPSPVTTAVPGPPGPDKNHLLADGGSFGDWASTIPGQTRSSMVQWLNPQSPTTTSSNSAVTPLSPGSSPFPFSPPATVADKPPESIRSRKARAVYPCEAEHSSELSFEIGAIFEDVQTSREPGWLEGTLNGKRGLIPQNYVKLL
notes: also called ARHGAP10 (p.S490P)-GFP; source: expressed in HEK293 cells
  band intensity percentage relative to the corresponding bait: 15.8%
